Experimental data: patent publication EP4671273A1 (Anaveon AG, dated 2025)

Key:
[1] = molecular target: T1, human PD-1 (#PD1-H82E4, AcroBiosystems) (human, UniProt Q15116 25-167); experiment: SPR, PD-1 on captured IgG1
T1 construct: bought

[2] = molecular target: T2, cynomolgus PD-1 (#PD1-C52H5, AcroBiosystems) (cynomolgus monkey, UniProt B0LAJ3 25-170); experiment: SPR, PD-1 on captured IgG1
T2 construct: bought; also called cynomolgus monkey PD-1; not shown: the vendor's tag on the recombinant protein (AcroBiosystems #PD1-C52H5)

[3] = molecular target: T3, rhIL-21-His (AB235875-1001, Abcam) (human, UniProt Q9HBE4 30-162); experiment: SPR, Fab on captured rhIL-21-His
T3 construct: bought; not shown: His tag, length and position not described
T3 sequence (Q9HBE4 30-162 limits assumed): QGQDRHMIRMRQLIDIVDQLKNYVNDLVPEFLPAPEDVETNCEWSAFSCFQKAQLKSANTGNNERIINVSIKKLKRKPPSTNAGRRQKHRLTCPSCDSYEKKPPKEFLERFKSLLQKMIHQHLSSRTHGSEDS

T1 sequence (Q15116 25-167 limits assumed): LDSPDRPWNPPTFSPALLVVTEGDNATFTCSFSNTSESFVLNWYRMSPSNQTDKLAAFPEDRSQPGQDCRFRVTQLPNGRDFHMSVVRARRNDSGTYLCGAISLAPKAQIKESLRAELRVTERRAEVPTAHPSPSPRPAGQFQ
T2 sequence (B0LAJ3 entry or part of it limits assumed, form in doubt): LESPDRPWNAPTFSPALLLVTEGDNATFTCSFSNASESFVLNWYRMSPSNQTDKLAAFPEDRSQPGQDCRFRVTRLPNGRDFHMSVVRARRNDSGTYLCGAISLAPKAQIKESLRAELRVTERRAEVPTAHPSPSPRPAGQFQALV

Binder	Kd [1]	koff [1]	kon [1]	Kd [2]	koff [2]	kon [2]	Kd [3]	koff [3]	kon [3]
MEK904 Fab (Fab, V domains shown, Fab) VH: QVQLQESGPGLVKPSETLSLTCTVSGGSISSDYWGWIRQPPGKGLEWIGYISYRGSTNYNPSLKSRVTISVDTSRNQFSLKLSSVTAADTAVYYCARSAGVADFDFWGQGTLVTVSS VL: DIQLTQSPSSVSASVGDRVTITCRASQGISSWLAWYQHKPGKAPKLLIYVASSLQSGVPSRFSGSGSGTDFTLTISSLQPEDFATYYCQQASSFPLTFGGGTKVEIK							0.69 nM	0.00015 s⁻¹	210000 M⁻¹ s⁻¹
CLJ397 Fab (Fab, V domains shown, Fab) VH: QVQLQESGPGLVKPSETLSLTCTVSGGSISSDYWGWIRQPPGKGLEWIGYISYRGSTNYNPSLKSRVTISVDTSRNQFSLKLSSVTAADTAVYYCARSAGVADFDAWGQGTLVTVSS VL: DIQLTQSPSSVSASVGDRVTITCRASQGISSWLAWYQHKPGKAPKLLIYVASSLQSGVPSRFSGSGSGTDFTLTISSLQPEDFATYYCQQASSFPLTFGGGTKVEIK							0.55 nM	0.00015 s⁻¹	270000 M⁻¹ s⁻¹
EJT070 Fab (Fab, V domains shown, Fab) VH: QVQLQESGPGLVKPSETLSLTCTVSGGSISSDYWGWIRQPPGKGLEWIGYISYSGSTNYNPSLKSRVTISVDTSRNQFSLKLSSVTAADTAVYYCARSAGVADFDFWGQGTLVTVSS VL: DIQLTQSPSSVSASVGDRVTITCRASQGISSWLAWYQHKPGKAPKLLIYVASSLQSGVPSRFSGSGSGTDFTLTISSLQPEDFATYYCQQASSFPLTFGGGTKVEIK							0.82 nM	0.0002 s⁻¹	250000 M⁻¹ s⁻¹

Second part, the binder after the results:

Kd [1]	koff [1]	kon [1]	Kd [2]	koff [2]	kon [2]	Kd [3]	koff [3]	kon [3]	Binder
1.21 nM	0.000536 s⁻¹	444000 M⁻¹ s⁻¹	0.785 nM	0.000436 s⁻¹	555000 M⁻¹ s⁻¹				RZL961 (antibody, human IgG1, V domains shown, human IgG1) VH: VQLVQSGAEVKKPGASVKVSCKASGYTFTNFYIHWVRQAPGQGLEWMGSIYPQYGITAYNQKFKDRVTMTVDTSTSTAYMELRSLRSDDTAVYYCARGYSYAMDYWGQGTTVTVSS VL: DIQMTQSPSSVSASVGDRVTITCSASQGISGDLNWYQQKPGKAPKLLIYHTSQLHSDVPSRFSGSGSGTDFTLTISSLQPEDFATYYCQGYSKDLLTFGGGTKLEIK
0.808 nM	0.000336 s⁻¹	416000 M⁻¹ s⁻¹	0.664 nM	0.00026 s⁻¹	391000 M⁻¹ s⁻¹				YCF391 (antibody, human IgG1, V domains shown, human IgG1) VH: VQLVQSGAEVKKPGASVKVSCKASGYTFTNFYIHWVRQAPGQGLEWMGSTYPNYGITAYNQKFKDRVTMTVDTSTSTAYMELRSLRSDDTAVYYCARGYSYAMDYWGQGTTVTVSS VL: DIQMTQSPSSVSASVGDRVTITCSASQGISGDLNWYQQKPGKAPKLLIYHTSQLHSDVPSRFSGSGSGTDFTLTISSLQPEDFATYYCQGYSKDLLTFGGGTKLEIK
0.515 nM	0.000202 s⁻¹	393000 M⁻¹ s⁻¹	0.331 nM	0.00016 s⁻¹	485000 M⁻¹ s⁻¹				WAZ460 (antibody, human IgG1, V domains shown, human IgG1) VH: VQLVQSGAEVKKPGASVKVSCKASGYTFTNFYIHWVRQAPGQGLEWMGSIYPNYGITAYNQKFKDRVTMTVDTSTSTAYMELRSLRSDDTAVYYCARGYSYAMDYWGQGTTVTVSS VL: DIQMTQSPSSVSASVGDRVTITCRASQGISGDLNWYQQKPGKAPKLLIYHTSQLHSDVPSRFSGSGSGTDFTLTISSLQPEDFATYYCQGYSKDLLTFGGGTKLEIK
0.801 nM	0.00028 s⁻¹	349000 M⁻¹ s⁻¹	0.502 nM	0.000243 s⁻¹	483000 M⁻¹ s⁻¹				ZTD928 (antibody, human IgG1, V domains shown, human IgG1) VH: VQLVQSGAEVKKPGASVKVSCKASGYTFTNFYIHWVRQAPGQGLEWMGSIYPNYGITAYNQKFKDRVTMTVDTSTSTAYMELRSLRSDDTAVYYCARGYSYAMDYWGQGTTVTVSS VL: DIQMTQSPSSVSASVGDRVTITCSASQGISGDLNWYQQKPGKAPKLLIYHTSQLHSDVPSRFSGSGSGTDFTLTISSLQPEDFATYYCQGYSKDTLTFGGGTKLEIK
